Measurements published in the Human Domainome abundance scans (Beltran et al. 2025).
± gives the uncertainty stated by the source.

B1: Double-stranded RNA-specific adenosine deaminase, residues 296 to 358; numbered along this chain, P55265 (parent)
chain: MAEIKEKICDYLFNVSDSSALNLAKNIGLTKARDINAVLIDMERQGDVYRQGTTPPIWHLTDK

Variants of: B1
Assay: abundance fitness (aPCA) (normalised: wild type 0, dead -1); higher = more abundant; growth selection in yeast, the domain comes from the species named
Conditions: Homo sapiens

First: MAEIKEKICDYLFNVSDSSALNLAKWIGLTKARDINAVLIDMERQGDVYRQGTTPPIWHLTDK [N26W]
Second: MAEIKEKICDYLFNVSDSSALNLAKAIGLTKARDINAVLIDMERQGDVYRQGTTPPIWHLTDK [N26A]
The abundance fitness of the first is lower: -0.327 ± 0.065 for the first, 0.189 ± 0.047 for the second.

MAEIKEKICDYLFNVSDSSALNLAKQIGLTKARDINAVLIDMERQGDVYRQGTTPPIWHLTDK [N26Q] and MAEIKEKICDYLFNVSDSSALNLAKVIGLTKARDINAVLIDMERQGDVYRQGTTPPIWHLTDK [N26V] are within error of each other in abundance fitness: 0.009 ± 0.087 for the first, 0.044 ± 0.047 for the second.

Going from MAEIKEKICDYLFNVSDSSALNLAKMIGLTKARDINAVLIDMERQGDVYRQGTTPPIWHLTDK [N26M] to MAEIKEKICDYLFNVSDSSALNLAKGIGLTKARDINAVLIDMERQGDVYRQGTTPPIWHLTDK [N26G], the abundance fitness rises from -0.328 ± 0.07 to -0.001 ± 0.05.

Going from MAEIKEKICDYLFNVSDSSALNLAKIIGLTKARDINAVLIDMERQGDVYRQGTTPPIWHLTDK [N26I] to MAEIKEKICDYLFNVSDSSALNLAKYIGLTKARDINAVLIDMERQGDVYRQGTTPPIWHLTDK [N26Y], the abundance fitness rises from -0.271 ± 0.063 to -0.114 ± 0.077.

Compared with MAEIKEKICDYLFNVSDSSALNLAKPIGLTKARDINAVLIDMERQGDVYRQGTTPPIWHLTDK [N26P], MAEIKEKICDYLFNVSDSSALNLAKEIGLTKARDINAVLIDMERQGDVYRQGTTPPIWHLTDK [N26E] is higher in abundance fitness: -0.629 ± 0.085 for the first, 0.075 ± 0.089 for the second.

Going from MAEIKEKICDYLFNVSDSSALNLAKCIGLTKARDINAVLIDMERQGDVYRQGTTPPIWHLTDK [N26C] to MAEIKEKICDYLFNVSDSSALNLAKSIGLTKARDINAVLIDMERQGDVYRQGTTPPIWHLTDK [N26S], the abundance fitness rises from -0.338 ± 0.082 to -0.103 ± 0.048.

MAEIKEKICDYLFNVSDSSALNLAKLIGLTKARDINAVLIDMERQGDVYRQGTTPPIWHLTDK [N26L] and MAEIKEKICDYLFNVSDSSALNLAKDIGLTKARDINAVLIDMERQGDVYRQGTTPPIWHLTDK [N26D] are within error of each other in abundance fitness: -0.429 ± 0.059 for the first, -0.539 ± 0.081 for the second.

First: MAEIKEKICDYLFNVSDSSALNLAKFIGLTKARDINAVLIDMERQGDVYRQGTTPPIWHLTDK [N26F]
Second: MAEIKEKICDYLFNVSDSSALNLAKHIGLTKARDINAVLIDMERQGDVYRQGTTPPIWHLTDK [N26H]
The abundance fitness of the first is lower: -0.328 ± 0.076 for the first, 0.215 ± 0.057 for the second.

First: MAEIKEKICDYLFNVSDSSALNLAKRIGLTKARDINAVLIDMERQGDVYRQGTTPPIWHLTDK [N26R]
Second: MAEIKEKICDYLFNVSDSSALNLAKTIGLTKARDINAVLIDMERQGDVYRQGTTPPIWHLTDK [N26T]
The abundance fitness of the first is higher: -0.202 ± 0.047 for the first, -0.403 ± 0.063 for the second.

Compared with MAEIKEKICDYLFNVSDSSALNLAKKIGLTKARDINAVLIDMERQGDVYRQGTTPPIWHLTDK [N26K], MAEIKEKICDYLFNVSDSSALNLAPNIGLTKARDINAVLIDMERQGDVYRQGTTPPIWHLTDK [K25P] is lower in abundance fitness: -0.057 ± 0.068 for the first, -0.928 ± 0.12 for the second.

Compared with MAEIKEKICDYLFNVSDSSALNLAENIGLTKARDINAVLIDMERQGDVYRQGTTPPIWHLTDK [K25E], MAEIKEKICDYLFNVSDSSALNLAYNIGLTKARDINAVLIDMERQGDVYRQGTTPPIWHLTDK [K25Y] is lower in abundance fitness: -0.124 ± 0.083 for the first, -0.626 ± 0.12 for the second.

Going from MAEIKEKICDYLFNVSDSSALNLACNIGLTKARDINAVLIDMERQGDVYRQGTTPPIWHLTDK [K25C] to MAEIKEKICDYLFNVSDSSALNLASNIGLTKARDINAVLIDMERQGDVYRQGTTPPIWHLTDK [K25S], the abundance fitness falls from -0.36 ± 0.1 to -0.542 ± 0.06.

MAEIKEKICDYLFNVSDSSALNLADNIGLTKARDINAVLIDMERQGDVYRQGTTPPIWHLTDK [K25D] and MAEIKEKICDYLFNVSDSSALNLAHNIGLTKARDINAVLIDMERQGDVYRQGTTPPIWHLTDK [K25H] are within error of each other in abundance fitness: -0.141 ± 0.1 for the first, -0.083 ± 0.082 for the second.

MAEIKEKICDYLFNVSDSSALNLAMNIGLTKARDINAVLIDMERQGDVYRQGTTPPIWHLTDK [K25M] and MAEIKEKICDYLFNVSDSSALNLALNIGLTKARDINAVLIDMERQGDVYRQGTTPPIWHLTDK [K25L] are within error of each other in abundance fitness: -0.282 ± 0.072 for the first, -0.404 ± 0.056 for the second.

MAEIKEKICDYLFNVSDSSALNLANNIGLTKARDINAVLIDMERQGDVYRQGTTPPIWHLTDK [K25N] and MAEIKEKICDYLFNVSDSSALNLATNIGLTKARDINAVLIDMERQGDVYRQGTTPPIWHLTDK [K25T] are within error of each other in abundance fitness: -0.234 ± 0.07 for the first, -0.32 ± 0.058 for the second.

Compared with MAEIKEKICDYLFNVSDSSALNLAQNIGLTKARDINAVLIDMERQGDVYRQGTTPPIWHLTDK [K25Q], MAEIKEKICDYLFNVSDSSALNLAINIGLTKARDINAVLIDMERQGDVYRQGTTPPIWHLTDK [K25I] is lower in abundance fitness: -0.024 ± 0.058 for the first, -0.578 ± 0.11 for the second.

Compared with MAEIKEKICDYLFNVSDSSALNLAWNIGLTKARDINAVLIDMERQGDVYRQGTTPPIWHLTDK [K25W], MAEIKEKICDYLFNVSDSSALNLAANIGLTKARDINAVLIDMERQGDVYRQGTTPPIWHLTDK [K25A] is higher in abundance fitness: -0.82 ± 0.092 for the first, -0.213 ± 0.057 for the second.

MAEIKEKICDYLFNVSDSSALNGAKNIGLTKARDINAVLIDMERQGDVYRQGTTPPIWHLTDK [L23G] and MAEIKEKICDYLFNVSDSSALNCAKNIGLTKARDINAVLIDMERQGDVYRQGTTPPIWHLTDK [L23C] are within error of each other in abundance fitness: -0.403 ± 0.045 for the first, -0.474 ± 0.091 for the second.

Going from MAEIKEKICDYLFNVSDSSALNWAKNIGLTKARDINAVLIDMERQGDVYRQGTTPPIWHLTDK [L23W] to MAEIKEKICDYLFNVSDSSALNFAKNIGLTKARDINAVLIDMERQGDVYRQGTTPPIWHLTDK [L23F], the abundance fitness falls from -0.682 ± 0.094 to -1.03 ± 0.16.

Compared with MAEIKEKICDYLFNVSDSSALNAAKNIGLTKARDINAVLIDMERQGDVYRQGTTPPIWHLTDK [L23A], MAEIKEKICDYLFNVSDSSALNRAKNIGLTKARDINAVLIDMERQGDVYRQGTTPPIWHLTDK [L23R] is lower in abundance fitness: -0.368 ± 0.064 for the first, -0.592 ± 0.06 for the second.

Compared with MAEIKEKICDYLFNVSDSSALNMAKNIGLTKARDINAVLIDMERQGDVYRQGTTPPIWHLTDK [L23M], MAEIKEKICDYLFNVSDSSALNQAKNIGLTKARDINAVLIDMERQGDVYRQGTTPPIWHLTDK [L23Q] is lower in abundance fitness: -0.374 ± 0.11 for the first, -1.2 ± 0.35 for the second.
